The record followed here is publication PMC9537309.

Common to all, as to test: FLAG immunoprecipitation and LC/ESI-MS/MS
What all share (conditions): HEK293T cells, three biological replicates; read off a plot

The target in test [1] is FUBP3.
Test [2] deals with ILF3.
For test [3], the target named is MYH9.
In test [4] the target is HNRNPA2B1.
Test [5] addresses SART3.

Consider “FLAG-tagged DND1 wild-type (Dead End, full-length human protein 1-353) (from UniProt Q8IYX4) R98A”, for which the other: log2 fold change is -2.5 in test [1]; -1.6 in test [2]; 0.43 in test [3]; -1.3 in test [4]; -2.5 in test [5].
